Data from patent US20240116985A1, “STAPLED PEPTIDES AND METHODS THEREOF” (priority 2020, published 2024).
Blank lines part the entries; values can stand above or below the binder they belong to. Starred links: 1 amine or outer side, 2 acyl side, 3 side chain; linkers in the order of their positions; H or OH if unused. Positions of bridges follow the written chain, without caps; N, C: chain ends. Non-standard residues stand in square brackets, D forms with d. Primed or numbered codes have the meaning given here. *: point of attachment. PyrS2″ = (S)-3-amino-1-((pent-4-en-1-yloxy)carbonyl)pyrrolidine-3-carboxylic acid (stapling residue), C=CCCCOC(=O)N1CC[C@@](N[*:1])(C(=O)[*:2])C1; B5(4) = 2,2-bis(4-pentenyl)glycine = 2-amino-2-(pent-4-en-1-yl)hept-6-enoic acid (stitching residue), C=CCCCC(CCCC=C)(N[*:1])C(=O)[*:2]; B5(8) = 2,2-bis(4-pentenyl)glycine (2-amino-2-(pent-4-en-1-yl)hept-6-enoic acid, stitching residue), C=CCCCC(CCCC=C)(N[*:1])C(=O)[*:2]; TfeGA = (S)-2-amino-3-((carboxymethyl)(2,2,2-trifluoroethyl)amino)propanoic acid, O=C([C@H](CN(CC(=O)[*:3])CC(F)(F)F)N[*:1])[*:2]; PyrS2 = (S)-3-amino-1-((pent-4-en-1-yloxy)carbonyl)pyrrolidine-3-carboxylic acid, C=CCCCOC(=O)N1CC[C@@](N[*:1])(C(=O)[*:2])C1; B5(12) = 2-amino-2-(pent-4-en-1-yl)hept-6-enoic acid (two olefin side chains), C=CCCCC(CCCC=C)(N[*:1])C(=O)[*:2]; B5(13) = 2-amino-2-(pent-4-en-1-yl)hept-6-enoic acid (two alkene chains), C=CCCCC(CCCC=C)(N[*:1])C(=O)[*:2]; B5(3) = 2,2-bis(4-pentenyl)glycine (stitching residue), C=CCCCC(CCCC=C)(N[*:1])C(=O)[*:2]; B5 = 2-amino-2-(pent-4-en-1-yl)hept-6-enoic acid, C=CCCCC(CCCC=C)(N[*:1])C(=O)[*:2]; 4pentenyl = N-terminal pent-4-enoic acid (acyl cap), C=CCCC(=O)*; Phe(4-COOH) = N[C@@H](Cc1ccc(C(=O)O)cc1)C(=O)O; Phe(2-Cl) = N[C@@H](Cc1ccccc1Cl)C(=O)O; 2Nal = N[C@@H](Cc1ccc2ccccc2c1)C(=O)O; Bta = N[C@@H](Cc1csc2ccccc12)C(=O)O; αAllylPro = C=CC[C@@]1(C(=O)O)CCCN1; tBuAla = CC(C)(C)C[C@H](N)C(=O)O; 3Thi = N[C@@H](Cc1ccsc1)C(=O)O; S8 = C=CCCCCCC[C@](C)(N)C(=O)O; hSer = N[C@@H](CCO)C(=O)O

Legend:
Bcat-Halo [1] = target: Bcat-Halo (UniProt P35222); assay: NanoBRET in HEK293 cells, Bcat-Halo/TCF4-Luc (competitor TCF4-Luc); IC50
[2] = target: full-length beta-Catenin (Uniprot ID P35222) (Homo sapiens (Human)) (UniProt P35222); assay: fluorescence polarization competition; full-length beta-catenin, competitor 5FAM-TCF4(10-53) probe
Bcat-Halo [3] = target: Bcat-Halo (UniProt P35222); assay: NanoBRET in HEK293 cells, Bcat-Halo/TCF4-Luc (competitor TCF4-Luc); percent inhibition at 10 uM peptide
[4] = target: full-length beta-Catenin (Uniprot ID P35222) (Homo sapiens (Human)) (UniProt P35222); assay: fluorescence polarization competition; peptide displaces 5FAM-TCF4(10-53) from full-length beta-catenin
Target sequence in this assay (P35222 2-781 limits assumed): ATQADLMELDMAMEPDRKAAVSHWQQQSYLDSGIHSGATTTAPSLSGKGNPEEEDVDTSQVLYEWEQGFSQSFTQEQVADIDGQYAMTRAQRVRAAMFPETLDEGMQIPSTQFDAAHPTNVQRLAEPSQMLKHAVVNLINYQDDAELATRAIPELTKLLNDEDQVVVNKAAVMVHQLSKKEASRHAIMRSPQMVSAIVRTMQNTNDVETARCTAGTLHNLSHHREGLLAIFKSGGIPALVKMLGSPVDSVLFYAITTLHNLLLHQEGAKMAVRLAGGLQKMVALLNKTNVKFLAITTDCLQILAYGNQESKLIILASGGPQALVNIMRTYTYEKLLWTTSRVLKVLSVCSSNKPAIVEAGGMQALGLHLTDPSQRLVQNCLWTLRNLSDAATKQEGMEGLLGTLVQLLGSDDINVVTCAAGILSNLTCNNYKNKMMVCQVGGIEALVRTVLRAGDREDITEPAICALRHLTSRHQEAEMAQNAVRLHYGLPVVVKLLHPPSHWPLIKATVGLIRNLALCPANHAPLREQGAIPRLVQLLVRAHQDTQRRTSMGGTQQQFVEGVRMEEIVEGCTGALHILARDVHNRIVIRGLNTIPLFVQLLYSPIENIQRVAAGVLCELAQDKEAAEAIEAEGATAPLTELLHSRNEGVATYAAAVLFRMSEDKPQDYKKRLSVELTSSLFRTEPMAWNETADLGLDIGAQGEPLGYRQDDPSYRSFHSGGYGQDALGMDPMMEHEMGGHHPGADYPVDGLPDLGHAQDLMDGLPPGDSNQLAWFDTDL

Bcat-Halo [5] = target: Bcat-Halo (UniProt P35222); assay: NanoBRET in HEK293 cells, Bcat-Halo / TCF4-Luc; peptide at 10 uM; competitor TCF4-Luc
[6] = target: full-length beta-Catenin (Uniprot ID P35222) (Homo sapiens (Human)) (UniProt P35222); assay: fluorescence polarization competition; full-length beta-catenin; competitor displaced: 5FAM-TCF4 10-53
Target sequence in this assay (P35222 2-781 limits assumed): as above

[7] = target: full-length beta-Catenin (Uniprot ID P35222) (Homo sapiens (Human)) (UniProt P35222); assay: fluorescence polarization competition; full-length beta-catenin + 5FAM-TCF4(10-53) probe; peptide titrated
Target sequence in this assay (P35222 2-781 limits assumed): as above

[8] = target: full-length beta-Catenin (Uniprot ID P35222) (Homo sapiens (Human)) (UniProt P35222); assay: FP competition vs 5FAM-TCF4(10-53) probe on full-length beta-catenin
Target sequence in this assay (P35222 whole entry, one chain of several): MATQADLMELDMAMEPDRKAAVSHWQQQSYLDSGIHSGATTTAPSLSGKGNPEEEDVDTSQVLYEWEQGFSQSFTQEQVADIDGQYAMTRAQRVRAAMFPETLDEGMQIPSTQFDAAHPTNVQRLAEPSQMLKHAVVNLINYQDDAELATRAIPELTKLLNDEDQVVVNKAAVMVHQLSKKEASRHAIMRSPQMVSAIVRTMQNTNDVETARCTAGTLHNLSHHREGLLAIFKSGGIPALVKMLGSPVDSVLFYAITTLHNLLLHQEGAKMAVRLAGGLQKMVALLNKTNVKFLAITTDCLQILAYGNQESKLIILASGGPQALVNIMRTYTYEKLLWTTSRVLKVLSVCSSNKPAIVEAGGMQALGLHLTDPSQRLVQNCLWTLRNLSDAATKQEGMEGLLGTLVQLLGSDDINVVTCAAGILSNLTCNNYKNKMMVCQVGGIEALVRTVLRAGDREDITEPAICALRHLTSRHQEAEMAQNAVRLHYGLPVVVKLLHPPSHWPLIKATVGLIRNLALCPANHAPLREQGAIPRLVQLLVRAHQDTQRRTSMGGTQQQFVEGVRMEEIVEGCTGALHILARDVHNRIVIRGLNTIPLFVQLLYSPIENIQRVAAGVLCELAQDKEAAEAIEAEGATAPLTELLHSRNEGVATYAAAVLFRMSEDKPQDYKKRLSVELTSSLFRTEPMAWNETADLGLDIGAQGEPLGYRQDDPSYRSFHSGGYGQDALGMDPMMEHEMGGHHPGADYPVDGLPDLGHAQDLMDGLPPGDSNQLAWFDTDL

[9] = target: full-length beta-Catenin (Uniprot ID P35222) (Homo sapiens (Human)) (UniProt P35222); assay: AlphaScreen competition vs biotin-TCF4(10-53) on full-length beta-catenin
Target sequence in this assay (P35222 whole entry, one chain of several): as above

[10] = target: beta-catenin (full-length, Uniprot ID P35222) (Homo sapiens (Human)) (UniProt P35222); assay: fluorescence polarization competition; full-length beta-catenin; competitor 5FAM-TCF4(10-53) probe
Target sequence in this assay (P35222 whole entry, one chain of several): as above

Bcat-Halo [11] = target: Bcat-Halo (UniProt P35222); assay: NanoBRET Abs IC50; HEK293 cells transfected with B-cat-Halo and TCF4-Luc
[12] = target: full-length beta-Catenin (Uniprot ID P35222) (Homo sapiens (Human)) (UniProt P35222); assay: fluorescence polarization competition; full-length beta-catenin, 5FAM-TCF4(10-53) probe
Target sequence in this assay (P35222 2-781 limits assumed): as the sequence (P35222 2-781 limits assumed) above

Bcat-Halo [13] = target: Bcat-Halo (UniProt P35222); assay: NanoBRET in HEK293 cells, Bcat-Halo / TCF4-Luc; absolute IC50
[14] = target: full-length beta-Catenin (Uniprot ID P35222) (Homo sapiens (Human)) (UniProt P35222); assay: FP competition; full-length beta-catenin, competitor 5FAM-TCF4(10-53)
Target sequence in this assay (P35222 whole entry, one chain of several): as the sequence (P35222 whole entry, one chain of several) above

[15] = target: full-length beta-Catenin (Uniprot ID P35222) (Homo sapiens (Human)) (UniProt P35222); assay: fluorescence polarization competition; full-length beta-catenin + 5FAM-TCF4 10-53 probe, peptide titrated
Target sequence in this assay (P35222 2-781 limits assumed): as the sequence (P35222 2-781 limits assumed) above

[16] = target: beta-catenin (full-length, Uniprot ID P35222) (Homo sapiens (Human)) (UniProt P35222); assay: fluorescence polarization competition, displacement of 5FAM-TCF4 10-53 from full-length beta-catenin
Target sequence in this assay (P35222 2-781 limits assumed): as above

[17] = target: full-length beta-Catenin (Uniprot ID P35222) (Homo sapiens (Human)) (UniProt P35222); assay: AlphaScreen competition; full-length beta-catenin with biotin-TCF4(10-53) probe as competitor
Target sequence in this assay (P35222 2-781 limits assumed): as above

Bcat-Halo [18] = target: Bcat-Halo (UniProt P35222); assay: NanoBRET Abs IC50; Bcat-Halo/TCF4-Luc engagement in HEK293 cells
[19] = target: full-length beta-Catenin (Uniprot ID P35222) (Homo sapiens (Human)) (UniProt P35222); assay: fluorescence polarization competition; 5FAM-TCF4 10-53 probe on full-length beta-catenin
Target sequence in this assay (P35222 whole entry, one chain of several): as the sequence (P35222 whole entry, one chain of several) above

[20] = target: full-length beta-Catenin (Uniprot ID P35222) (Homo sapiens (Human)) (UniProt P35222); assay: fluorescence polarization competition, peptide titrated against full-length beta-catenin + 5FAM-TCF4(10-53)
[21] = target: full-length beta-Catenin (Uniprot ID P35222) (Homo sapiens (Human)) (UniProt P35222); assay: fluorescence polarization competition vs 5FAM-TCF4(10-53) on full-length beta-catenin
Target sequence in this assay (P35222 whole entry, one chain of several): as above

[22] = target: full-length beta-Catenin (Uniprot ID P35222) (Homo sapiens (Human)) (UniProt P35222); assay: fluorescence polarization competition; peptide titrated against full-length beta-catenin + 5FAM-TCF4(10-53) probe
[23] = target: Bcat-Halo (beta-catenin HaloTag construct expressed in HEK293 cells) (UniProt P35222); assay: NanoBRET in HEK293 cells, percent inhibition at 10 uM peptide; Bcat-Halo with TCF4-Luc as competitor
[24] = target: full-length beta-Catenin (Uniprot ID P35222) (Homo sapiens (Human)) (UniProt P35222); assay: fluorescence polarization competition; displacement of 5FAM-TCF4(10-53) from full-length beta-catenin
Target sequence in this assay (P35222 whole entry, one chain of several): as above

[25] = target: full-length beta-Catenin (Uniprot ID P35222) (Homo sapiens (Human)) (UniProt P35222); assay: fluorescence polarization competition; 10 nM full-length beta-catenin with 10 nM 5FAM-TCF4 (residues 10-53) probe as competitor
[26] = target: full-length beta-Catenin (Uniprot ID P35222) (Homo sapiens (Human)) (UniProt P35222); assay: fluorescence polarization competition; 10 nM full-length beta-catenin + 10 nM 5FAM-TCF4(10-53) as competitor probe; peptide titrated (top concentration 10 uM)
Bcat-Halo [27] = target: Bcat-Halo (UniProt P35222); assay: NanoBRET Abs IC50 in HEK293 cells; Bcat-Halo, competitor TCF4-Luc
[28] = target: full-length beta-Catenin (Uniprot ID P35222) (Homo sapiens (Human)) (UniProt P35222); assay: fluorescence polarization competition, full-length beta-catenin with 5FAM-TCF4(10-53) probe as competitor
Bcat-Halo [29] = target: Bcat-Halo (UniProt P35222); assay: NanoBRET in HEK293 cells, B-cat-Halo/TCF4-Luc, absolute IC50
[30] = target: full-length beta-Catenin (Uniprot ID P35222) (Homo sapiens (Human)) (UniProt P35222); assay: fluorescence polarization competition against 5FAM TCF4 10-53 probe
Bcat-Halo [31] = target: Bcat-Halo (UniProt P35222); assay: NanoBRET Abs IC50 (absolute IC50) in HEK293 cells, Bcat-Halo / TCF4-Luc engagement
[32] = target: full-length beta-Catenin (Uniprot ID P35222) (Homo sapiens (Human)) (UniProt P35222); assay: fluorescence polarization competition, full-length beta-catenin with 5FAM-TCF4(10-53) probe
[33] = target: full-length beta-Catenin (Uniprot ID P35222) (Homo sapiens (Human)) (UniProt P35222); assay: fluorescence polarization competition; 10 nM full-length beta-catenin; competitor 5FAM-TCF4 10-53 probe

Chain of Bcat-Halo (P35222 whole entry): as the sequence (P35222 whole entry, one chain of several) above
Chain of Bcat-Halo (beta-catenin HaloTag construct expressed in HEK293 cells) (P35222 whole entry): as the sequence (P35222 whole entry, one chain of several) above

- IC50 (Bcat-Halo [1]): 14400 nM
- EC50 [2]: 5 nM
- NanoBRET % inh @ 10 uM (Bcat-Halo [3]): 24.5%
- IC50 [4]: 5 nM
B1: I-777 (peptide)
peptide: Ac-[αAllylPro]D[tBuAla][B5(13)]DDAAFN[PyrS2]F[Bta]H-NH2
modifications: staple 1-4, 4-11

- NanoBRET % inh @ 10 uM (Bcat-Halo [5]): 32.7%
- IC50 [6]: 5 nM
- EC50 [7]: 5 nM
B2: I-694 (peptide)
peptide: Ac-[αAllylPro]D[tBuAla][B5(8)]DDAAFN[PyrS2″][3Thi][Bta]H-NH2
modifications: staple 1-4, 4-11

- EC50 [8]: 5000 nM
- EC50 [9]: 1180 nM
- IC50 [10]: 5000 nM
B3: I-295 (peptide)
peptide: Ac-[αAllylPro]DA[B5(4)]D[2Nal]AAFQ[S8]F[Bta]Q-NH2
modifications: staple 1-4, 4-11

- IC50 (Bcat-Halo [11]): > 20000 nM
- IC50 [12]: 271 nM
B4: I-2142 (peptide)
peptide: Ac-[αAllylPro]D[tBuAla][B5]NTAAFN[PyrS2][3Thi][Bta]A-NH2
modifications: staple 1-4, 4-11; also: earlier eluting HPLC isomer

- IC50 (Bcat-Halo [13]): 11300 nM
- EC50 [14]: 18 nM
- IC50 [15]: 18 nM
B5: I-1388 (peptide)
peptide: Ac-[αAllylPro]D[tBuAla][B5(4)]DDAAF[hSer][S8]F[Bta]Q-NH2
modifications: staple 1-4, 4-11

- IC50 [16]: 140 nM
B6: I-293: Ac-PL3-Asp-Ala-B5-Asp-TfeGA-Ala-Ala-Phe-Val-S8-Phe-BztA-Gln-NH2 (peptide)
peptide: Ac-[αAllylPro]DA[B5(4)]D[TfeGA]AAFV[S8]F[Bta]Q-NH2
modifications: staple 1-4, 4-11

- EC50 [17]: 5450 nM
B7: I-141 (peptide)
peptide: Ac-[αAllylPro]DA[B5(12)]DEAAFV[S8]F[2Nal]-NH2
modifications: staple 1-4, 4-11

- IC50 (Bcat-Halo [18]): 15000 nM
- IC50 [19]: 6 nM
- EC50 [20]: 6 nM
B8: I-818 (peptide)
peptide: Ac-[αAllylPro]D[tBuAla][B5]DDAAFN[PyrS2″][3Thi][Bta][dN]-NH2
modifications: staple 1-4, 4-11

- IC50 [21]: 5000 nM
- EC50 [22]: 5000 nM
B9: I-339 (peptide)
peptide: Ac-[αAllylPro]DA[B5(4)]DDAAFV[S8][Phe(4-COOH)][Bta]Q-NH2
modifications: staple 1-4, 4-11; also: earlier-eluting staple isomer

- IC50 [21]: 5000 nM
- EC50 [22]: 5000 nM
B10: I-340 (peptide)
peptide: Ac-[αAllylPro]DA[B5(4)]DDAAFV[S8][Phe(4-COOH)][Bta]Q-NH2
modifications: staple 1-4, 4-11; also: later-eluting staple isomer

- NanoBRET % inh @ 10 uM [23]: 4.3%
- IC50 [24]: 56 nM
- EC50 [25]: 35 nM
B11: I-846 (peptide)
peptide: Ac-[αAllylPro]D[tBuAla][B5(4)]DLAAFN[PyrS2][3Thi][Bta]Q-NH2
modifications: staple 1-4, 4-11

- NanoBRET % inh @ 10 uM (Bcat-Halo [5]): 17%
- IC50 [6]: 5 nM
- EC50 [7]: 5 nM
B12: I-696 (peptide)
peptide: Ac-[αAllylPro]DL[B5(8)]DDAAFN[PyrS2″][3Thi][Bta]H-NH2
modifications: staple 1-4, 4-11

- IC50 [26]: 10000 nM
B13: I-1740 (peptide)
peptide: Ac-[αAllylPro]D[tBuAla][B5(4)]NTAAFF[PyrS2″][3Thi][Bta]Q-NH2
modifications: staple 1-4, 4-11

- IC50 (Bcat-Halo [27]): 6700 nM
- IC50 [2]: 22 nM
- EC50 [28]: 22 nM
B14: I-677 (peptide)
peptide: Ac-[αAllylPro]D[tBuAla][B5(4)]DEAAFN[S8]F[Bta]Q-NH2
modifications: staple 1-4, 4-11

- IC50 (Bcat-Halo [29]): > 20000 nM
- IC50 [30]: 234 nM
B15: I-2599 (peptide)
peptide: 4pentenyl-XD[B5(3)]ADDAAF[PyrS2]L[3Thi][Bta]Q-NH2
modifications: staple 3-10; staple (positions not given here); not fully specified (residue 1, bridges); printed as 4pentenyl-MePro-Asp-B5-Ala-Asp-Asp-Ala-Ala-Phe-PyrS2-Leu-3Thi-BztA-Gln-NH2

- IC50 (Bcat-Halo [31]): 6000 nM
- EC50 [32]: 27 nM
- IC50 [33]: 27 nM
B16: I-923 (peptide)
peptide: Ac-[αAllylPro]D[tBuAla][B5(3)]D[TfeGA]AAFF[PyrS2″][Phe(2-Cl)][Bta]Q-NH2
modifications: staple 1-4, 4-11
